T1: human beta-Klotho (KLB) (human, UniProt Q86Z14 53-997)
T1 construct: also called human KLB
T1 sequence (looked up): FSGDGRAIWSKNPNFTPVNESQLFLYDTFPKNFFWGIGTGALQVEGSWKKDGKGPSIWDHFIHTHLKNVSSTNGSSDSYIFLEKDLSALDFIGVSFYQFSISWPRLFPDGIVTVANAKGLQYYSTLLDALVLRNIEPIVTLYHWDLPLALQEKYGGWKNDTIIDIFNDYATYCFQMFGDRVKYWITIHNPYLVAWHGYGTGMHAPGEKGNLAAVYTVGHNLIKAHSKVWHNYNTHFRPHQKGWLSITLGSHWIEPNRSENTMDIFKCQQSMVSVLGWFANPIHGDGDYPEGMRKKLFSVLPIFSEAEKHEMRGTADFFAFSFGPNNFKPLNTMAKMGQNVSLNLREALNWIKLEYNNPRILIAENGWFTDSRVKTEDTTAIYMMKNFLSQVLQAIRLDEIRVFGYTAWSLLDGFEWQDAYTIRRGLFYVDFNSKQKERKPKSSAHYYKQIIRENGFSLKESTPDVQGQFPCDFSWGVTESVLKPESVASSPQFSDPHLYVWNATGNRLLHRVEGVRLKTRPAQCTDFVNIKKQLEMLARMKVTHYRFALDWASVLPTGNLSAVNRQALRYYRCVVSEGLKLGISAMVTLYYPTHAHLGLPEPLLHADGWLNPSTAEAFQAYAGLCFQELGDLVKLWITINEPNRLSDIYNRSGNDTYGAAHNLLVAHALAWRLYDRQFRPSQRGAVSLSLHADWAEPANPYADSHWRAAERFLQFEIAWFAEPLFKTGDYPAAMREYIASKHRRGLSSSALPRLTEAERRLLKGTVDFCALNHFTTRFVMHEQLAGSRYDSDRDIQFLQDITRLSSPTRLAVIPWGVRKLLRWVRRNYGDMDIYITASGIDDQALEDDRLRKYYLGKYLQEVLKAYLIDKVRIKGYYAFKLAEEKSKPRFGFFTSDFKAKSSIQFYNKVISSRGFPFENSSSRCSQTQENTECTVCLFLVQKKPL


Experiments:
[1] = target: T1, human beta-Klotho (KLB); experiment: BLI off-rate screen (Octet), Ab captured via Fc;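 note: antibody supernatants applied at 25 µg/mL, dissociation monitored over 1800 s in D-PBS with 0.1% BSA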
[2] = target: human FGFR1c/KLB cell surface receptor complex on iLite FGF21 reporter cells (human, UniProt P11362 22-822; Q86Z14 1-1044); experiment: cell-based or functional assay; for Mean E max (%): reference of the scale not given here
Chain of human FGFR1c/KLB cell surface receptor complex on iLite FGF21 reporter cells (P11362 22-822, chain 1 of 2): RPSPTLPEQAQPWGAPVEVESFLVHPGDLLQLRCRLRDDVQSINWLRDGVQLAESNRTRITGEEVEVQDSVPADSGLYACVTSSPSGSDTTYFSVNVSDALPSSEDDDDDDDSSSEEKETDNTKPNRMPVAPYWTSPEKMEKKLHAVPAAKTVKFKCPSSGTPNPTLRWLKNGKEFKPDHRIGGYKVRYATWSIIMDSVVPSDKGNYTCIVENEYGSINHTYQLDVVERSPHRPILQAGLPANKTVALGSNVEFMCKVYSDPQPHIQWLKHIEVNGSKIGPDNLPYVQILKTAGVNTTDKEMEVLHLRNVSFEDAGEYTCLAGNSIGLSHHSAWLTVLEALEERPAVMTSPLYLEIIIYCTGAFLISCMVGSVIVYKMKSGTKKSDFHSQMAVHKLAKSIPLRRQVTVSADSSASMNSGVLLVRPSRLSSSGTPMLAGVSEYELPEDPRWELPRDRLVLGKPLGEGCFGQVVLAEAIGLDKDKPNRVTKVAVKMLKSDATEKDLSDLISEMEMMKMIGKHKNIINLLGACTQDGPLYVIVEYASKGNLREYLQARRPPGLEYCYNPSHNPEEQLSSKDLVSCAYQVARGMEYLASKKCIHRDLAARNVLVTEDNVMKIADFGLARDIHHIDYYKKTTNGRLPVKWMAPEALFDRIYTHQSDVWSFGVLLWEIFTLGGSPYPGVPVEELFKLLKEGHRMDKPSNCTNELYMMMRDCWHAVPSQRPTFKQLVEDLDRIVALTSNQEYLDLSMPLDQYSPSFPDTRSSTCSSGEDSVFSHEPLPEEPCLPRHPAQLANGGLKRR
Chain of human FGFR1c/KLB cell surface receptor complex on iLite FGF21 reporter cells (Q86Z14 whole entry, chain 2 of 2): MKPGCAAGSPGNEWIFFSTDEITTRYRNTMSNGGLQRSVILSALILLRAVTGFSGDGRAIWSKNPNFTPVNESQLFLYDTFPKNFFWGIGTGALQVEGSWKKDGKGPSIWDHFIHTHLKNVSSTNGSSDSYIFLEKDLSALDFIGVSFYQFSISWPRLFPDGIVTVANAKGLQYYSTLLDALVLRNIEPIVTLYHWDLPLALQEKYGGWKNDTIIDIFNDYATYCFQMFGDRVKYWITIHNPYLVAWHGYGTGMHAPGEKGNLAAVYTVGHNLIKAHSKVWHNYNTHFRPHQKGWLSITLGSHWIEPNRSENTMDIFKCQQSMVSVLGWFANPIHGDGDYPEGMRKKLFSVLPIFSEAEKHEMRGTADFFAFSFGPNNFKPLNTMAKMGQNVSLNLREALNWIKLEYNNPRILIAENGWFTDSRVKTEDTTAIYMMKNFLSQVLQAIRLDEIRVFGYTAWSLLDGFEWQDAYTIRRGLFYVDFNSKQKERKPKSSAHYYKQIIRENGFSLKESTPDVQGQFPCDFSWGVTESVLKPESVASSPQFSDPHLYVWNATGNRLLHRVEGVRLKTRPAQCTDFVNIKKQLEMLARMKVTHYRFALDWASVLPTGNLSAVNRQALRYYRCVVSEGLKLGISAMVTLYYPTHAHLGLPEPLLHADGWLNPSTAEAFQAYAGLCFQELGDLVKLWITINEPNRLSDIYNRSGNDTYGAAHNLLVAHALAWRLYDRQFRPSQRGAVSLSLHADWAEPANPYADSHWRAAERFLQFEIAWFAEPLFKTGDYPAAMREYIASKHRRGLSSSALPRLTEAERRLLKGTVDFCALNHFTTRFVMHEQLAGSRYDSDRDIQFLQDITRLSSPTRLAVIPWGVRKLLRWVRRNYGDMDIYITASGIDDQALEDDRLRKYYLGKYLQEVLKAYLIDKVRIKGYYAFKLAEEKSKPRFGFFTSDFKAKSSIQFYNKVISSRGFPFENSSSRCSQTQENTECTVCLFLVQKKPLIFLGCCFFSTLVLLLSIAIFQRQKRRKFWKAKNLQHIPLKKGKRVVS

| Binder | koff [1] [s⁻¹] | Mean E max (%) [2] [%] | Mean EC50 [2] [nM] |
| --- | --- | --- | --- |
| 16H7 variant, light chain N26P (antibody, human IgG4 S228P, lambda, V domains shown, IgG4 backbone) VH: not shown VL: SYVLTQPPSVSVAPGQTARITCGGNPIGSESVHWYQQKPGQAPVLVVYDDSDRPSGIPERFSGSNSGNTATLTISRVEAGDEADYYCQVWDGNSDHVVFGGGTKLTVLG | 5.1e-05 | 100 | 0.099 |
| 16H7 variant, light chain P54L (antibody, human IgG4 S228P, lambda, V domains shown, IgG4 backbone) VH: not shown VL: SYVLTQPPSVSVAPGQTARITCGGNNIGSESVHWYQQKPGQAPVLVVYDDSDRLSGIPERFSGSNSGNTATLTISRVEAGDEADYYCQVWDGNSDHVVFGGGTKLTVLG | 9.6e-05 | 108 | 0.133 |
| 16H7 variant, light chain N26W (antibody, IgG4, V domains shown, IgG4 backbone; copies: 2 + 2) VH: not shown VL: SYVLTQPPSVSVAPGQTARITCGGNWIGSESVHWYQQKPGQAPVLVVYDDSDRPSGIPERFSGSNSGNTATLTISRVEAGDEADYYCQVWDGNSDHVVFGGGTKLTVLG | 6.7e-05 | 105 | 0.129 |
| 16H7 variant, light chain N26Y (antibody, human IgG4 S228P, lambda, V domains shown, IgG4 backbone) VH: not shown VL: SYVLTQPPSVSVAPGQTARITCGGNYIGSESVHWYQQKPGQAPVLVVYDDSDRPSGIPERFSGSNSGNTATLTISRVEAGDEADYYCQVWDGNSDHVVFGGGTKLTVLG | 3.7e-05 | 110 | 0.124 |
| 16H7 variant, light chain N26S (antibody, IgG4, V domains shown, IgG4 backbone; copies: 2 + 2) VH: not shown VL: SYVLTQPPSVSVAPGQTARITCGGNSIGSESVHWYQQKPGQAPVLVVYDDSDRPSGIPERFSGSNSGNTATLTISRVEAGDEADYYCQVWDGNSDHVVFGGGTKLTVLG | 1e-07 | 101 | 0.118 |
| 16H7 variant, light chain N26Q (antibody, IgG4, V domains shown, IgG4 backbone; copies: 2 + 2) VH: not shown VL: SYVLTQPPSVSVAPGQTARITCGGNQIGSESVHWYQQKPGQAPVLVVYDDSDRPSGIPERFSGSNSGNTATLTISRVEAGDEADYYCQVWDGNSDHVVFGGGTKLTVLG | 1e-07 | 109 | 0.119 |
| 16H7 variant, light chain P54T (antibody, human IgG4 S228P, lambda, V domains shown, IgG4 backbone) VH: not shown VL: SYVLTQPPSVSVAPGQTARITCGGNNIGSESVHWYQQKPGQAPVLVVYDDSDRTSGIPERFSGSNSGNTATLTISRVEAGDEADYYCQVWDGNSDHVVFGGGTKLTVLG | 0.00018 | 108 | 0.113 |
| 16H7 variant, light chain P54R (antibody, human IgG4 S228P, lambda, V domains shown, IgG4 backbone) VH: not shown VL: SYVLTQPPSVSVAPGQTARITCGGNNIGSESVHWYQQKPGQAPVLVVYDDSDRRSGIPERFSGSNSGNTATLTISRVEAGDEADYYCQVWDGNSDHVVFGGGTKLTVLG | 0.00011 | 104 | 0.111 |
| 16H7 variant, light chain Q88G (antibody, human IgG4 S228P, lambda, V domains shown, IgG4 backbone) VH: not shown VL: SYVLTQPPSVSVAPGQTARITCGGNNIGSESVHWYQQKPGQAPVLVVYDDSDRPSGIPERFSGSNSGNTATLTISRVEAGDEADYYCGVWDGNSDHVVFGGGTKLTVLG | 0.00017 | 110 | 0.129 |
| 16H7 variant, light chain P54Y (antibody, human IgG4 S228P, lambda, V domains shown, IgG4 backbone) VH: not shown VL: SYVLTQPPSVSVAPGQTARITCGGNNIGSESVHWYQQKPGQAPVLVVYDDSDRYSGIPERFSGSNSGNTATLTISRVEAGDEADYYCQVWDGNSDHVVFGGGTKLTVLG | 8.3e-05 | 110 | 0.15 |
| 16H7 variant, light chain Q88L (antibody, IgG4, V domains shown, IgG4 backbone; copies: 2 + 2) VH: not shown VL: SYVLTQPPSVSVAPGQTARITCGGNNIGSESVHWYQQKPGQAPVLVVYDDSDRPSGIPERFSGSNSGNTATLTISRVEAGDEADYYCLVWDGNSDHVVFGGGTKLTVLG | 9.9e-05 | 107 | 0.134 |
| 16H7 variant, light chain P54S (antibody, human IgG4 S228P, lambda, V domains shown, IgG4 backbone) VH: not shown VL: SYVLTQPPSVSVAPGQTARITCGGNNIGSESVHWYQQKPGQAPVLVVYDDSDRSSGIPERFSGSNSGNTATLTISRVEAGDEADYYCQVWDGNSDHVVFGGGTKLTVLG | 7.9e-05 | 102 | 0.103 |
| 16H7 variant, light chain P54N (antibody, human IgG4 S228P, lambda, V domains shown, IgG4 backbone) VH: not shown VL: SYVLTQPPSVSVAPGQTARITCGGNNIGSESVHWYQQKPGQAPVLVVYDDSDRNSGIPERFSGSNSGNTATLTISRVEAGDEADYYCQVWDGNSDHVVFGGGTKLTVLG | 0.00014 | 105 | 0.15 |
| 16H7 variant, light chain N26V (antibody, human IgG4 S228P, lambda, V domains shown, IgG4 backbone) VH: not shown VL: SYVLTQPPSVSVAPGQTARITCGGNVIGSESVHWYQQKPGQAPVLVVYDDSDRPSGIPERFSGSNSGNTATLTISRVEAGDEADYYCQVWDGNSDHVVFGGGTKLTVLG | 3.5e-05 | 106 | 0.118 |
| 16H7 variant, light chain Q88A (antibody, human IgG4 S228P, lambda, V domains shown, IgG4 backbone) VH: not shown VL: SYVLTQPPSVSVAPGQTARITCGGNNIGSESVHWYQQKPGQAPVLVVYDDSDRPSGIPERFSGSNSGNTATLTISRVEAGDEADYYCAVWDGNSDHVVFGGGTKLTVLG | 0.00011 | 108 | 0.133 |
| 16H7 variant, light chain P54M (antibody, human IgG4 S228P, lambda, V domains shown, IgG4 backbone) VH: not shown VL: SYVLTQPPSVSVAPGQTARITCGGNNIGSESVHWYQQKPGQAPVLVVYDDSDRMSGIPERFSGSNSGNTATLTISRVEAGDEADYYCQVWDGNSDHVVFGGGTKLTVLG | 3.2e-05 | 98 | 0.087 |
| 16H7 variant, light chain P54V (antibody, human IgG4 S228P, lambda, V domains shown, IgG4 backbone) VH: not shown VL: SYVLTQPPSVSVAPGQTARITCGGNNIGSESVHWYQQKPGQAPVLVVYDDSDRVSGIPERFSGSNSGNTATLTISRVEAGDEADYYCQVWDGNSDHVVFGGGTKLTVLG | 4.1e-05 | 109 | 0.11 |
| 16H7 variant, light chain P54C (antibody, human IgG4 S228P, lambda, V domains shown, IgG4 backbone) VH: not shown VL: SYVLTQPPSVSVAPGQTARITCGGNNIGSESVHWYQQKPGQAPVLVVYDDSDRCSGIPERFSGSNSGNTATLTISRVEAGDEADYYCQVWDGNSDHVVFGGGTKLTVLG | 0.00012 | 100 | 0.116 |
| 16H7 variant, light chain P54G (antibody, human IgG4 S228P, lambda, V domains shown, IgG4 backbone) VH: not shown VL: SYVLTQPPSVSVAPGQTARITCGGNNIGSESVHWYQQKPGQAPVLVVYDDSDRGSGIPERFSGSNSGNTATLTISRVEAGDEADYYCQVWDGNSDHVVFGGGTKLTVLG | 5.1e-05 | 114 | 0.141 |
| 16H7 variant, light chain N26R (antibody, human IgG4 S228P, lambda, V domains shown, IgG4 backbone) VH: not shown VL: SYVLTQPPSVSVAPGQTARITCGGNRIGSESVHWYQQKPGQAPVLVVYDDSDRPSGIPERFSGSNSGNTATLTISRVEAGDEADYYCQVWDGNSDHVVFGGGTKLTVLG | 2.5e-05 | 110 | 0.205 |
| 16H7 variant, light chain P54D (antibody, human IgG4 S228P, lambda, V domains shown, IgG4 backbone) VH: not shown VL: SYVLTQPPSVSVAPGQTARITCGGNNIGSESVHWYQQKPGQAPVLVVYDDSDRDSGIPERFSGSNSGNTATLTISRVEAGDEADYYCQVWDGNSDHVVFGGGTKLTVLG | 0.00028 | 96 | 0.115 |
| 16H7 variant, light chain P54H (antibody, human IgG4 S228P, lambda, V domains shown, IgG4 backbone) VH: not shown VL: SYVLTQPPSVSVAPGQTARITCGGNNIGSESVHWYQQKPGQAPVLVVYDDSDRHSGIPERFSGSNSGNTATLTISRVEAGDEADYYCQVWDGNSDHVVFGGGTKLTVLG | 0.00014 | 100 | 0.111 |
| 16H7 variant, light chain P54W (antibody, human IgG4 S228P, lambda, V domains shown, IgG4 backbone) VH: not shown VL: SYVLTQPPSVSVAPGQTARITCGGNNIGSESVHWYQQKPGQAPVLVVYDDSDRWSGIPERFSGSNSGNTATLTISRVEAGDEADYYCQVWDGNSDHVVFGGGTKLTVLG | 0.00017 | 98 | 0.091 |
| 16H7 variant, light chain P54F (antibody, human IgG4 S228P, lambda, V domains shown, IgG4 backbone) VH: not shown VL: SYVLTQPPSVSVAPGQTARITCGGNNIGSESVHWYQQKPGQAPVLVVYDDSDRFSGIPERFSGSNSGNTATLTISRVEAGDEADYYCQVWDGNSDHVVFGGGTKLTVLG | 0.00012 | 105 | 0.143 |
| 16H7 variant, light chain P54I (antibody, human IgG4 S228P, lambda, V domains shown, IgG4 backbone) VH: not shown VL: SYVLTQPPSVSVAPGQTARITCGGNNIGSESVHWYQQKPGQAPVLVVYDDSDRISGIPERFSGSNSGNTATLTISRVEAGDEADYYCQVWDGNSDHVVFGGGTKLTVLG | 3.5e-05 | 112 | 0.115 |
| 16H7 variant, light chain P54K (antibody, human IgG4 S228P, lambda, V domains shown, IgG4 backbone) VH: not shown VL: SYVLTQPPSVSVAPGQTARITCGGNNIGSESVHWYQQKPGQAPVLVVYDDSDRKSGIPERFSGSNSGNTATLTISRVEAGDEADYYCQVWDGNSDHVVFGGGTKLTVLG | 0.00016 | 100 | 0.131 |

Source: patent US20220010021A1 (Sanofi, published 2022)
